The text below walks through data of IntAct's records for PubMed 19264842.

B1: 1-phosphatidylinositol 4,5-bisphosphate phosphodiesterase gamma-1 (Homo sapiens), P19174 (parent)
chain: MAGAASPCANGCGPGAPSDAEVLHLCRSLEVGTVMTLFYSKKSQRPERKTFQVKLETRQITWSRGADKIEGAIDIREIKEIRPGKTSRDFDRYQEDPAFRPDQSHCFVILYGMEFRLKTLSLQATSEDEVNMWIKGLTWLMEDTLQAPTPLQIERWLRKQFYSVDRNREDRISAKDLKNMLSQVNYRVPNMRFLRERLTDLEQRSGDITYGQFAQLYRSLMYSAQKTMDLPFLEASTLRAGERPELCRVSLPEFQQFLLDYQGELWAVDRLQVQEFMLSFLRDPLREIEEPYFFLDEFVTFLFSKENSVWNSQLDAVCPDTMNNPLSHYWISSSHNTYLTGDQFSSESSLEAYARCLRMGCRCIELDCWDGPDGMPVIYHGHTLTTKIKFSDVLHTIKEHAFVASEYPVILSIEDHCSIAQQRNMAQYFKKVLGDTLLTKPVEISADGLPSPNQLKRKILIKHKKLAEGSAYEEVPTSMMYSENDISNSIKNGILYLEDPVNHEWYPHYFVLTSSKIYYSEETSSDQGNEDEEEPKEVSSSTELHSNEKWFHGKLGAGRDGRHIAERLLTEYCIETGAPDGSFLVRESETFVGDYTLSFWRNGKVQHCRIHSRQDAGTPKFFLTDNLVFDSLYDLITHYQQVPLRCNEFEMRLSEPVPQTNAHESKEWYHASLTRAQAEHMLMRVPRDGAFLVRKRNEPNSYAISFRAEGKIKHCRVQQEGQTVMLGNSEFDSLVDLISYYEKHPLYRKMKLRYPINEEALEKIGTAEPDYGALYEGRNPGFYVEANPMPTFKCAVKALFDYKAQREDELTFIKSAIIQNVEKQEGGWWRGDYGGKKQLWFPSNYVEEMVNPVALEPEREHLDENSPLGDLLRGVLDVPACQIAIRPEGKNNRLFVFSISMASVAHWSLDVAADSQEELQDWVKKIREVAQTADARLTEGKIMERRKKIALELSELVVYCRPVPFDEEKIGTERACYRDMSSFPETKAEKYVNKAKGKKFLQYNRLQLSRIYPKGQRLDSSNYDPLPMWICGSQLVALNFQTPDKPMQMNQALFMTGRHCGYVLQPSTMRDEAFDPFDKSSLRGLEPCAISIEVLGARHLPKNGRGIVCPFVEIEVAGAEYDSTKQKTEFVVDNGLNPVWPAKPFHFQISNPEFAFLRFVVYEEDMFSDQNFLAQATFPVKGLKTGYRAVPLKNNYSEDLELASLLIKIDIFPAKENGDLSPFSGTSLRERGSDASGQLFHGRAREGSFESRYQQPFEDFRISQEHLADHFDSRERRAPRRTRVNGDNRL

Variants of B1 are the subject of this assay. As to conditions: with rac1_human RAC1, P63000.
With P842L, the “effect of a mutation on the interaction” value was “disrupting interaction”.
